Data from PMC7119934 (Peptide Characterization and Application Protocols, 2007).

Target: the molecule itself
Assay: SEC

B1: HRN extended (902–950) (peptide)
peptide: QKQIANQFNKAISQIQESLTTTSTALGKLQDVVNQNAQALNTLVKQLSS
stoichiometry N: 3
